Experimental data as given in the supplement of paper PMC7877785.
± gives the uncertainty stated by the source.

Assay: self-splicing fitness, log relative to wild type (ln ratio); higher = more splicing; Tetrahymena group I intron in knt gene, E. coli kanamycin selection, DiMSum; sequences stand for … in CUCUCU…GGAGGGAAAAGUUAUCAGGCAUGCACCUGGUAGCUAGUCUUUAAACCAAUAGAUUGCAUCGGUUUAAAAGGCAAGACCGUCAAAUUGCGGGAAAGGGGUCAACAGCCGUUCAGUACCAAGUCUCAGGGGAAACUUUGAGAUGGCCUUGCAAAGGGUAUGGUAAUAAGCUGACGGACAUGGUCCUAACCACGCAGCCAAGUCCUAAGUCAACAGAUCUUCUGUUGAUAUGGAUGCAGUUCACAGACUAAAUGUCGGUCGGGGAAGAUGUAUUCUUCUCAUAAGAUAUAGUCGGACCUCUCCUUAAUGGGAGCUAGCGGAUGAAGUGAUGCAACACUGGAGCCGCUGGGAACUAAUUUGUAUGCGAAAGUAUAUUGAUUAGUUUUGGAGUACUCGUGGUCG
Outline: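 Fitness was computed with DiMSum as the error-weighted combination of replicate fold changes, kanamycin versus none, each normalised to wild type. The library randomised all eight intron nucleotides of the P1ex region, with the intron placed in the knt kanamycin-resistance gene on pET-22b(+) in E. coli BL21(DE3). Six replicate transformations were grown overnight at 37°C or 30°C on LB agar with or without 25 μg/mL kanamycin, plus 100 μg/mL carbenicillin, 50 μM IPTG and 0.2% rhamnose. Pooled colonies were amplicon-sequenced on an Illumina HiSeq 2500.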

| Sequence | self-splicing fitness (ln) (30 °C) | self-splicing fitness (ln) (37 °C) |
| --- | --- | --- |
| UACCAGCAAUAUUACGUCCA | -0.321 ± 0.081 | 0.176 ± 0.091 |
| GACCAGCAAUAUUACGAAUC | -0.584 ± 0.096 | -0.196 ± 0.1 |
| UCCAAGCAAUAUUACGCACA | -0.502 ± 0.092 | -0.309 ± 0.099 |
| CCAGAGCAAUAUUACGUUGC | -4.54 ± 0.37 | -2.11 ± 0.18 |
| AGAAAGCAAUAUUACGCUGU | -2.34 ± 0.14 | -1.98 ± 0.16 |
| AUCCAGCAAUAUUACGAUUU | -0.0954 ± 0.061 | 0.488 ± 0.081 |
| GACGAGCAAUAUUACGCGUG | -3.11 ± 0.29 | -1.77 ± 0.21 |
| AACCAGCAAUAUUACGAGUA | -1.07 ± 0.061 | -0.523 ± 0.075 |
| GCGCAGCAAUAUUACGGAAG | -1.64 ± 0.12 | -1.66 ± 0.11 |
| AAACAGCAAUAUUACGUAAG | -1.23 ± 0.044 | -0.526 ± 0.065 |
| CGCUAGCAAUAUUACGGUGA | -2.28 ± 0.14 | -0.996 ± 0.11 |
| ACUGAGCAAUAUUACGCACG | -2.17 ± 0.15 | -1.11 ± 0.17 |
| UGAUAGCAAUAUUACGCCGA | -2.91 ± 0.32 | -1.28 ± 0.18 |
| CUCUAGCAAUAUUACGACGA | -2.13 ± 0.22 | -0.928 ± 0.16 |
| CAUCAGCAAUAUUACGGGAG | -0.766 ± 0.054 | -0.2 ± 0.075 |
| AGGGAGCAAUAUUACGUAGA | -3.05 ± 0.19 | -2.22 ± 0.48 |
| UCAAAGCAAUAUUACGUUUU | -3.28 ± 0.16 | -3.18 ± 0.3 |
| AGGCAGCAAUAUUACGUCAA | -1.25 ± 0.098 | -0.465 ± 0.095 |
| CGAGAGCAAUAUUACGCGUA | -3.31 ± 0.19 | -2.67 ± 0.29 |
| UUGUAGCAAUAUUACGGAAG | -3.94 ± 0.33 | -1.7 ± 0.36 |
| UUAAAGCAAUAUUACGAUGU | -1.91 ± 0.1 | -0.671 ± 0.15 |
| GGUUAGCAAUAUUACGAUAC | -0.314 ± 0.22 | -0.0363 ± 0.19 |
| AGGCAGCAAUAUUACGUACA | -0.585 ± 0.071 | -0.742 ± 0.093 |
| GACGAGCAAUAUUACGGUAG | -4.01 ± 0.36 | -2.18 ± 0.22 |
| AACGAGCAAUAUUACGUUAG | -3.71 ± 0.33 | -3.11 ± 0.3 |

| Sequence | self-splicing fitness (ln) (30 °C) | self-splicing fitness (ln) (37 °C) |
| --- | --- | --- |
| CUGUAGCAAUAUUACGUGAC | -0.572 ± 0.098 | -0.0647 ± 0.16 |
| AAGCAGCAAUAUUACGGCUC | -1.67 ± 0.093 | -0.463 ± 0.14 |
| CAUAAGCAAUAUUACGUCAA | -3.33 ± 0.27 | -2.61 ± 0.3 |
| GACCAGCAAUAUUACGCUCA | -0.152 ± 0.059 | -0.295 ± 0.079 |
| ACGAAGCAAUAUUACGGACG | -1.55 ± 0.13 | -0.00573 ± 0.18 |
| UGUCAGCAAUAUUACGGUUG | -0.893 ± 0.049 | 0.317 ± 0.072 |
| GACGAGCAAUAUUACGACCC | -0.0053 ± 0.24 | -0.307 ± 0.22 |
| CCCGAGCAAUAUUACGAAGA | -2.86 ± 0.31 | – |
| CGAAAGCAAUAUUACGCUCC | -1.14 ± 0.18 | -1.11 ± 0.21 |
| GUACAGCAAUAUUACGCACU | -0.597 ± 0.13 | -1.16 ± 0.24 |
| CAGCAGCAAUAUUACGCAUU | -3.68 ± 0.15 | -0.546 ± 0.089 |
| GUGUAGCAAUAUUACGGUGU | -2.26 ± 0.16 | -0.0252 ± 0.14 |
| CUCAAGCAAUAUUACGCCGA | – | -1.29 ± 0.34 |
| UGCAAGCAAUAUUACGCCAC | – | -3.58 ± 0.42 |
| UCAAAGCAAUAUUACGCUUA | -2.87 ± 0.14 | -2.53 ± 0.17 |
| CGCAAGCAAUAUUACGUAUC | -3.14 ± 0.13 | -2.33 ± 0.19 |
| GCGCAGCAAUAUUACGCCAG | -2.22 ± 0.26 | -2.28 ± 0.47 |
| UAGUAGCAAUAUUACGGUUG | -0.955 ± 0.056 | -0.642 ± 0.07 |
| CAGCAGCAAUAUUACGCGUC | -3.68 ± 0.17 | -1.24 ± 0.13 |
| UGGCAGCAAUAUUACGUUGA | -1.43 ± 0.13 | -0.707 ± 0.14 |
| CGCGAGCAAUAUUACGAAGA | – | -0.985 ± 0.39 |
| CUUUAGCAAUAUUACGAAGG | -1.23 ± 0.11 | -1.85 ± 0.21 |
| GCAAAGCAAUAUUACGUACG | -1.13 ± 0.083 | -1.84 ± 0.13 |
| GAGCAGCAAUAUUACGGUGG | -3.9 ± 0.2 | -2.31 ± 0.16 |
